The target in one series is T1, NEP enzyme (Homo sapiens, UniProt P08473).
T1 construct: made in house; host or cells: Pichia pastoris
The series is described as follows: NEP FRET assay (384 well, substrate CP4). Conditions: steady state kinetics of NEP with the peptide substrate. In kind it is biochemical.

In the next series the target is T2, human SEP (Homo sapiens, UniProt Q495T6).
T2 construct: with the full length cDNA cloned into the pCMV6-XL4 vector; made in house; host or cells: CHO cells, transient transfection; dialysed culture medium
T2 sequence (Q495T6 75-779 limits assumed): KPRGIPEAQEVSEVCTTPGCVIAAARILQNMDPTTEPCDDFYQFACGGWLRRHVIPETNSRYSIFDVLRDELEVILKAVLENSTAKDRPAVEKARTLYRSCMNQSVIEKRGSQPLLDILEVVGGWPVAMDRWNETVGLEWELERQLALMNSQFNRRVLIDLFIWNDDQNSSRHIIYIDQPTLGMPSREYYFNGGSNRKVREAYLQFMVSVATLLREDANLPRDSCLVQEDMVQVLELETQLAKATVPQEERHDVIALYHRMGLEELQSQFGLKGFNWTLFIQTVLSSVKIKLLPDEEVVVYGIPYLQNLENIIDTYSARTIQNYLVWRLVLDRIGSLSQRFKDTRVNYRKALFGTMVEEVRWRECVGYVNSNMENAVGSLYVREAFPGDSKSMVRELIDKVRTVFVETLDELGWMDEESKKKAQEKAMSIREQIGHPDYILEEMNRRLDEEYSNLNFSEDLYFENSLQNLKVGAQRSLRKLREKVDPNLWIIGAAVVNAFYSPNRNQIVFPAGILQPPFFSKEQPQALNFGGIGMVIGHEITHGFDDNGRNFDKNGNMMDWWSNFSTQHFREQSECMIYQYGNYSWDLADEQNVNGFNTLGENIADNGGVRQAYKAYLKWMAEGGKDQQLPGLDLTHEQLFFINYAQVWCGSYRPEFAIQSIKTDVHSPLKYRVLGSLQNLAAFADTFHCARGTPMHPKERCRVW
The series is described as follows: Sensitivity of human SEP to inhibitors. The format is biochemical. On the procedure:
The enzymatic (proteolytic) activity of human SEP protein can be measured in an assay involving, for example, mixing a sample of the human SEP enzyme with a substrate peptide in a buffer solution (for example 50 mM HEPES; pH 7.4), incubating the mixture for a period of time (such as 1-3 hours) enough for human SEP to act to cleave a measurable portion of the peptide substrate to a product at a temperature suitable for SEP activity (typically 30-37° C.).
The effect of candidate human SEP inhibitor compounds or control test compounds such as phosphoramidon and thiorphan that may alter the activity of human SEP can be measured in this type of assay by including them in the initial mixture at a range of suitable test concentrations, typically 0.1 nM to 50 µM.
To determine the IC50 of SEP inhibitors (SEPi; for example, phosphoramidon), multiple SEP assays are performed as described above with a range of test concentrations of inhibitor included in the 50 μl of DMSO solution (made by appropriate dilution of a 10 mM 100% DMSO stock of inhibitor with 4% DMSO/50 mM HEPES pH7.4.). Using a suitable standard graph fitting computer program, a sigmoidal dose response curve is fitted to a plot of log inhibitor concentration versus MaxV (or % inhibition or % activity). The IC50 is calculated as the inhibitor concentration causing 50% maximal inhibition. […]

Another series deals with T3, mouse SEP (Mus musculus, UniProt Q9JLI3).
T3 sequence (Q9JLI3 1-765): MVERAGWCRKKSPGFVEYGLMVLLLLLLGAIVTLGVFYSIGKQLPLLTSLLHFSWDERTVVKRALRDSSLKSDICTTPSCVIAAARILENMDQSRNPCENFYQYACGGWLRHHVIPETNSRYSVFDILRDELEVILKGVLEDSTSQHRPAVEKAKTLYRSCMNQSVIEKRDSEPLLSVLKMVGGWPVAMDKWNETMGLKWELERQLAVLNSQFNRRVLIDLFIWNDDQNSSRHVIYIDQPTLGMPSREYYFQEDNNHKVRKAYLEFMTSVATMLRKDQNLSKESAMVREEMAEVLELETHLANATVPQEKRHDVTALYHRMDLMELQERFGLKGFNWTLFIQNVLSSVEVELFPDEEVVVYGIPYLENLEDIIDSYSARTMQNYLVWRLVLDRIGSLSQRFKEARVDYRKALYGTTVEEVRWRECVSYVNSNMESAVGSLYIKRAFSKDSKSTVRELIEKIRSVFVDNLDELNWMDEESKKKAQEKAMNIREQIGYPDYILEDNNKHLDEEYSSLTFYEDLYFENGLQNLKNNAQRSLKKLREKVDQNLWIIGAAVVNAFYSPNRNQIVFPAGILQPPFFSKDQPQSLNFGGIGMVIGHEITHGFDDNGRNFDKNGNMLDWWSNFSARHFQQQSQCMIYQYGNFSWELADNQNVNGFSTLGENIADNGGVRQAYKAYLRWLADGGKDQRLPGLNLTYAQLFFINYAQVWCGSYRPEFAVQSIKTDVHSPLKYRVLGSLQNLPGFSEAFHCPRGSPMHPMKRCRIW
To be noted: cited from earlier work.

Series [1] has as its target T4, Rhodamine green-Gly-Gly-dPhe-Leu-Arg-Arg-Val-Cys(QSY-7)-betaAla-NH2.
T4 chain: GGFLRRVCA

Non-standard residues stand in square brackets, D forms with d. QSY‑7 = quencher dye attached to Cys via maleimide; Rhodamine green = fluorophore at the N-terminus; βAla = NCCC(=O)O

T1 sequence (P08473 whole entry): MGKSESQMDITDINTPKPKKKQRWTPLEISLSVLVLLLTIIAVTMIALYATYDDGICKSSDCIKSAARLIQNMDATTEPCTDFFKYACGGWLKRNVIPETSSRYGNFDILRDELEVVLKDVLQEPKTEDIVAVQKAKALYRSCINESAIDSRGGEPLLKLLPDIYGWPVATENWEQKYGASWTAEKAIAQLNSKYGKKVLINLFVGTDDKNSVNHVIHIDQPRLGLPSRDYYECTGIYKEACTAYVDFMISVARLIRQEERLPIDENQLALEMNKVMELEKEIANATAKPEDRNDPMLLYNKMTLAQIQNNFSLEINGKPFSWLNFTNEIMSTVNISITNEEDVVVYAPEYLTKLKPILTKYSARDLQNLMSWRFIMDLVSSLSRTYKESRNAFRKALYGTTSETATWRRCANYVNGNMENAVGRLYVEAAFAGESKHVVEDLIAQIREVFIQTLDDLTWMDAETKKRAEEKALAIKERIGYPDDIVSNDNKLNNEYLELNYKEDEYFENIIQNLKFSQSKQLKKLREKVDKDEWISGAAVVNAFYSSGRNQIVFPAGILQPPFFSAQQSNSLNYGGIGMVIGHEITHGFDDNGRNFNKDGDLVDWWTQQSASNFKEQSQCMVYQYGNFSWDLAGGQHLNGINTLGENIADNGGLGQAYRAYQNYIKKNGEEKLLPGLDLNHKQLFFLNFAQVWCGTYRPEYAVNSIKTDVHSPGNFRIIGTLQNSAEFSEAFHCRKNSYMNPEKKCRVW

Usually Km stands for the concentration of substrate that gives half-maximal velocity. Consider “Rhodamine green-Gly-Gly-dPhe-Leu-Arg-Arg-Val-Cys(QSY™-7)-βAla-NH2 ({Rhodamine green}-GG[dF]LRRVC(QSY‑7)[βAla]-NH2) [CP4]”, for which the Kcat in the series with NEP enzyme worked out at 0.083 s⁻¹. In addition, in the series with NEP enzyme (recombinant human enzyme, 50 mM Hepes pH 8, 25° C.), the Km was 8 µM.
Take `O=C(O)CNC(=O)C(CS)Cc1ccccc1` (stereo not drawn) [thiorphan]: the “sensitivity of enzyme to inhibitor” value on human SEP and at mouse SEP was “sensitive” in each case.
For the molecule `CC(C)C[C@H](NP(=O)(O)O[C@@H]1O[C@@H](C)[C@H](O)[C@@H](O)[C@H]1O)C(=O)N[C@@H](Cc1c[nH]c2ccccc12)C(=O)O` [phosphoramidon], the “sensitivity of enzyme to inhibitor” value at human SEP and at mouse SEP was “sensitive” throughout.

B1: Recombinant human NEP (neutral endopeptidase) enzyme (protein)
chain: YDDGICKSSDCIKSAARLIQNMDATTEPCTDFFKYACGGWLKRNVIPETSSRYGNFDILRDELEVVLKDVLQEPKTEDIVAVQKAKALYRSCINESAIDSRGGEPLLKLLPDIYGWPVATENWEQKYGASWTAEKAIAQLNSKYGKKVLINLFVGTDDKNSVNHVIHIDQPRLGLPSRDYYECTGIYKEACTAYVDFMISVARLIRQEERLPIDENQLALEMNKVMELEKEIANATAKPEDRNDPMLLYNKMTLAQIQNNFSLEINGKPFSWLNFTNEIMSTVNISITNEEDVVVYAPEYLTKLKPILTKYSARDLQNLMSWRFIMDLVSSLSRTYKESRNAFRKALYGTTSETATWRRCANYVNGNMENAVGRLYVEAAFAGESKHVVEDLIAQIREVFIQTLDDLTWMDAETKKRAEEKALAIKERIGYPDDIVSNDNKLNNEYLELNYKEDEYFENIIQNLKFSQSKQLKKLREKVDKDEWISGAAVVNAFYSSGRNQIVFPAGILQPPFFSAQQSNSLNYGGIGMVIGHEITHGFDDNGRNFNKDGDLVDWWTQQSASNFKEQSQCMVYQYGNFSWDLAGGQHLNGINTLGENIADNGGLGQAYRAYQNYIKKNGEEKLLPGLDLNHKQLFFLNFAQVWCGTYRPEYAVNSIKTDVHSPGNFRIIGTLQNSAEFSEAFHCRKNSYMNPEKKCRVW
For B1, in series [1], the Kcat is 0.083 s⁻¹, the Kcat/Km was 10,500 M^-1 S^-1 and the Km came out at 8 µM.

Source of the values: patent US6991916B2, “Compounds for the treatment of sexual dysfunction” (Pfizer Inc., priority 2000, dated 2006).
